Data on five substances can be found in patent publication US20140228541A1.

The target in experiment [1] is carcinoembryonic antigen (CEA) (UniProt P06731). As to the kind of experiment: SEC-HPLC shift; the labeled Fab in serum without CEA eluted at 10.331 min. (In general: Size exclusion chromatography separates by hydrodynamic size, large species first.)
The target in experiment [2] is somatostatin receptors on AR42J cells (rat). Nature of the experiment: competition with ^111In(DTPA-octreotide) on AR42J cells, apparent IC50.
Experiment [3] deals with binding target of the bombesin analog IMP493 (not named in the paragraph). As to the kind of experiment: assay not described.
The target in experiment [4] is gastrin-releasing peptide receptor on PC-3 cells (UniProt P30550). Nature of the experiment: competition with ^125I-BBN on PC-3 cells, repeat experiment.
gastrin-releasing peptide receptor on PC-3 cells, sequence (P30550 whole entry): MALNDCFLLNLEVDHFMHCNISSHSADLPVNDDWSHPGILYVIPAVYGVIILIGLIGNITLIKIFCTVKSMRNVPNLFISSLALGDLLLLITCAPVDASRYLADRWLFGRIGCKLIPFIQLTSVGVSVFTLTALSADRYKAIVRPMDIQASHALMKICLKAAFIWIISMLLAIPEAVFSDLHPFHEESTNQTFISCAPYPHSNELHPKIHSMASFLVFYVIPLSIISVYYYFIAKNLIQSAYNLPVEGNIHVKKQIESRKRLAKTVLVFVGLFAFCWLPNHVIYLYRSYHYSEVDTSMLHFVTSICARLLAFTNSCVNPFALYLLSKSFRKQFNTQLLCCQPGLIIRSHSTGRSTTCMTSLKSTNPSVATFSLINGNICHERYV

somatostatin receptors on AR42J cells (rat), sequence (P30680 whole entry): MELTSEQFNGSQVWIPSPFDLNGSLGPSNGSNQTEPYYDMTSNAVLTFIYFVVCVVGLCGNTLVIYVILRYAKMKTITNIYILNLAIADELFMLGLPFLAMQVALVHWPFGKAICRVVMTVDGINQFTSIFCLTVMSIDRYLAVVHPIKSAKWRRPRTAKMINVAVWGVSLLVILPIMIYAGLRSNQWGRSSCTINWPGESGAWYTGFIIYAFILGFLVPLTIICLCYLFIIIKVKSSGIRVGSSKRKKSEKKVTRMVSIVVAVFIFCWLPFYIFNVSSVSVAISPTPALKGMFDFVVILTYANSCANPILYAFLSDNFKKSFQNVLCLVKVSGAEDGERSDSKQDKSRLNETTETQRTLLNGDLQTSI
carcinoembryonic antigen (CEA), sequence (P06731 35-685 limits assumed): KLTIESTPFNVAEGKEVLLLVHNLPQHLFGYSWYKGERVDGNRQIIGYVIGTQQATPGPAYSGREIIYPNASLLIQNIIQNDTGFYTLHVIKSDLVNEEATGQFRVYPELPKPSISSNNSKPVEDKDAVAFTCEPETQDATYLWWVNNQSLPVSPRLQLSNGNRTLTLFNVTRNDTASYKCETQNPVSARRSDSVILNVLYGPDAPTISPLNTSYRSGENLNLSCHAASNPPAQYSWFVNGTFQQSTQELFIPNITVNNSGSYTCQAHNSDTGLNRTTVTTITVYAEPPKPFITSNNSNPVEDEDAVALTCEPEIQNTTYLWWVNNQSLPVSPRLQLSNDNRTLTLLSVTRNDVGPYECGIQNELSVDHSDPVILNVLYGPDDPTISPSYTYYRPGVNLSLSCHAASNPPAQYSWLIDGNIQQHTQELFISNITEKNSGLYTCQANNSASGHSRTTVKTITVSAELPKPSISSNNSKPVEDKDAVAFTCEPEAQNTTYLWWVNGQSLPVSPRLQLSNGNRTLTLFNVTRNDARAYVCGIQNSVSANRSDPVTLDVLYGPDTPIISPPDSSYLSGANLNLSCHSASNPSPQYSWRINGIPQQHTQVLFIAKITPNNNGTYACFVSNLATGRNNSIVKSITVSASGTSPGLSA

Regarding Al^18F(NODA-MPAES)-hMN-14 Fab′, in experiment [1], the SEC-HPLC retention time of major product after adding CEA came out at 7.21 min.

As to “Al^19F(IMP466) (Al^19F complex of NOTA-D-Phe-Cys-Phe-D-Trp-Lys-Thr-Cys-Throl) (peptide)”, the IC50 in experiment [2] turned out to be 3.6 nM.

With ^69Ga(IMP466) (peptide), in experiment [2], the IC50 amounted to 13 nM.

With ^125I-Bombesin (Perkin-Elmer) (peptide), in experiment [3], the EC50 stood at 59 nM.

In experiment [4], “commercially available BBN peptide (positive control)” returned an IC50 of 24.4 nM.

Usually IC50 stands for the concentration that inhibits the measured activity by half. As a reminder, the EC50 is the concentration that produces a half-maximal response. A low value points to higher potency in that assay.
